Test results from the RNAGym collection of RNA variant scans (doi:10.7554/elife.90254).

B1: LINE1-mini (parent)
chain: GGCAGAGCUCAACACAGCGUGGCAAAGUGGCUGUGGCUAGACUGCC

Variants of: B1
Experiment: self-cleavage, relative activity (ratio to wild type); higher = more cleavage; in vitro, sequencing; the parent is a self-cleaving ribozyme

Variant | self-cleavage
GGCAGAGCUCAAGACAGCGUGGCAAAGUGGCUGUGGCUAGACAGCC | 0.11
GGCAGAGCUCAAGACAGCGUGGCAAAGUGGCUGUGGCUAGACUUCC | 0.06
GGCAGAGCUCAAGACAGCGUGGCAAAGUGGCUGUGGCUAGACUCCC | 0.05
GGCAGAGCUCAAGACAGCGUGGCAAAGUGGCUGUGGCUAGACUACC | 0.12
GGCAGAGCUCAAGACAGAGUGGCAAAGUGGCUGUGGCUAGACUGCC | 0.09
GGCAGAGCUCAAGACAGGGUGGCAAAGUGGCUGUGGCUAGACUGCC | 0.07
GGCAGAGCUCAAGACAGUGUGGCAAAGUGGCUGUGGCUAGACUGCC | 0.09
GGCAGAGCUCAAGACAGCGUGGCAAAGUGGCUGGGGCUAGACUGCC | 0.03
GGCAGAGCUCAAGACAGCGUGGCAAAGUGGCUGAGGCUAGACUGCC | 0.04
GGCAGAGCUCAAGACAGCGUGGCAAAGUGGCUGCGGCUAGACUGCC | 0.1
GGCAGAGCUCAAGACAGCGUGGCAGAGUGGCUGUGGCUAGACUGCC | 0.11
GGCAGAGCUCAAGACAGCGUGGCAUAGUGGCUGUGGCUAGACUGCC | 0.44
GGCAGAGCUCAAGACAGCGUGGCACAGUGGCUGUGGCUAGACUGCC | 0.18
GGCAGAGCUCAAGACAGCGUGGCAAAGUGGCUGUGGCUACACUGCC | 0.14
GGCAGAGCUCAAGACAGCGUGGCAAAGUGGCUGUGGCUAAACUGCC | 0.13
GGCAGAGCUCAAGACAGCGUGGCAAAGUGGCUGUGGCUAUACUGCC | 0.08
GGCAGAGCUCAAGACAGCGUGGCAAAGUGGCUGUGGCUGGACUGCC | 0.09
GGCAGAGCUCAAGACAGCGUGGCAAAGUGGCUGUGGCUCGACUGCC | 0.16
GGCAGAGCUCAAGACAGCGUGGCAAAGUGGCUGUGGCUUGACUGCC | 0.05

Variant | self-cleavage
GGCAGAGCUCAAGACAGCGUGGCAAAGUGGAUGUGGCUAGACUGCC | 0.16
GGCAGAGCUCAAGACAGCGUGGCAAAGUGGUUGUGGCUAGACUGCC | 0.13
GGCAGAGCUCAAGACAGCGUGGCAAAGUGGGUGUGGCUAGACUGCC | 0.05
GGCAGAGCUCAAGACAGCGUGGUAAAGUGGCUGUGGCUAGACUGCC | 0.46
GGCAGAGCUCAAGACAGCGUGGAAAAGUGGCUGUGGCUAGACUGCC | 0.29
GGCAGAGCUCAAGACAGCGUGGGAAAGUGGCUGUGGCUAGACUGCC | 0.13
GGCAGAGCUCAAGACAGCGUGGCAAAGAGGCUGUGGCUAGACUGCC | 0.28
GGCAGAGCUCAAGACAGCGUGGCAAAGGGGCUGUGGCUAGACUGCC | 0.35
GGCAGAGCUCAAGACAGCGUGGCAAAGCGGCUGUGGCUAGACUGCC | 0.36
GGCAGAGCUCAAGACAGCGUGGCAAAGUGGCUGUGGUUAGACUGCC | 0.37
GGCAGAGCUCAAGACAGCGUGGCAAAGUGGCUGUGGAUAGACUGCC | 0.13
GGCAGAGCUCAAGACAGCGUGGCAAAGUGGCUGUGGGUAGACUGCC | 0.04
GGCAGAGCUCAAGACAGCGUGUCAAAGUGGCUGUGGCUAGACUGCC | 0.18
GGCAGAGCUCAAGACAGCGUGACAAAGUGGCUGUGGCUAGACUGCC | 0.21
GGCAGAGCUCAAGACAGCGUGCCAAAGUGGCUGUGGCUAGACUGCC | 0.05
GGCAGAGCUCAAGACAGCGUGGCAAAGUAGCUGUGGCUAGACUGCC | 0.19
GGCAGAGCUCAAGACAGCGUGGCAAAGUUGCUGUGGCUAGACUGCC | 0.33
GGCAGAGCUCAAGACAGCGUGGCAAAGUCGCUGUGGCUAGACUGCC | 0.11
GGCAGAGCUCAAUACAGCGUGGCUAAGUGGCUGUGGCUAGACUGCC | 0.16

Variant | self-cleavage
GGCAGAGCUCAAUACAGCGUGGCGAAGUGGCUGUGGCUAGACUGCC | 0.13
GGCAGAGCUCAAUACAGCGUGGCCAAGUGGCUGUGGCUAGACUGCC | 0.15
GGCAGAGCUCAAUACAGCGUGGCACAGUGGCUGUGGCUAGACUGCC | 0.13
GGCAGAGCUCAAUACAGCGUGGCAUAGUGGCUGUGGCUAGACUGCC | 0.29
GGCAGAGCUCAAUACAGCGUGGCAGAGUGGCUGUGGCUAGACUGCC | 0.07
GGCAGAGCUCAAGACAGCGUGGCAAAGUGGCUGUGACUAGACUGCC | 0.29
GGCAGAGCUCAAGACAGCGUGGCAAAGUGGCUGUGCCUAGACUGCC | 0.08
GGCAGAGCUCAAGACAGCGUGGCAAAGUGGCUGUGUCUAGACUGCC | 0.1
GGCAGAGCUCAAGACAGCGUGGCAAGGUGGCUGUGGCUAGACUGCC | 0.08
GGCAGAGCUCAAGACAGCGUGGCAAUGUGGCUGUGGCUAGACUGCC | 0.19
GGCAGAGCUCAAGACAGCGUGGCAACGUGGCUGUGGCUAGACUGCC | 0.27
GGCAGAGCUCAAGAUAGCGUGGCAAAGUGGCUGUGGCUAGACUGCC | 0.15
GGCAGAGCUCAAGAAAGCGUGGCAAAGUGGCUGUGGCUAGACUGCC | 0.1
GGCAGAGCUCAAGAGAGCGUGGCAAAGUGGCUGUGGCUAGACUGCC | 0.09
GGCAGAGCUCAAUACAGCGUGGCAAAGUGGCUGUGGCUAGACUGCC | 0.17
GGCAGAGCUCAAGACAGCGUGGCAAAGUGGCGGUGGCUAGACUGCC | 0.05
GGCAGAGCUCAAGACAGCGUGGCAAAGUGGCAGUGGCUAGACUGCC | 0.09
GGCAGAGCUCAAGACAGCGUGGCAAAGUGGCCGUGGCUAGACUGCC | 0.07
